Measurements from patent US7320785B2, “Compositions and methods for modulation of DARPP-32 phosphorylation” (The Rockefeller University, priority 2001, dated 2008).

Assays:
Format in all cases: biochemical, rat
[1] = pNPP hydrolysis by recombinant PP2C isoforms (phosphatase assay); details: for Vmax / kcat / Km: pNPP as substrate; for Km: 37° C.
Experimental: The activity of PP2C isoforms using pNPP as substrate was assayed as previously described (Brumel et al., 1997). […] The reaction was stopped by addition of 1 ml of 0.1 M NaOH, and the initial rate of p-nitrophenol release was determined spectrophotometrically at 405 nm (using a molar extinction coefficient of 18 000 M−1 cm−1).
(§1) Kinetic parameters (Km and Vmax) were determined from Lineweaver-Burk plots.
Legend Table 7. Enzymatic activities of PP2C isoforms assayed using pNPP as substrate. Phosphatase activity was measured using pNPP as substrate by the change in absorbance at 405 nm. Km and Vmax values were calculated from Lineweaver-Burk plots of the data.

phospho-Ser137-DARPP-32 [2] = test: Dephosphorylation of phospho-Ser137-DARPP-32 by recombinant PP2C isoforms; details: [^32P]phospho-Ser137 DARPP-32 as substrate; in the presence of 10 mM Mn^2+
Experimental: The activity of PP2C isoforms using ^32P-DARPP (phosphorylated at Ser137) was assayed at 37° C. in a reaction mixture containing 25 mM Tris-HCl, pH 7.5, 10 mM MnCl2, 1% BSA, and […] substrate, in a total volume of […]. Reactions were stopped by addition of […] of 50% trichloroacetic acid. Samples were then incubated on ice for 30 min and centrifuged at 10,000 g for 10 min at 4° C. Radioactivity recovered in the supernatant was measured by Cerenkov counting in a scintillation counter (Beckman).
as §1
Legend Table 8. Enzymatic activities of PP2C isoforms assayed using [^32P]phospho-Ser137 DARPP-32 as substrate. Phosphatase activity was measured by the release of ^32P, and Km and Vmax values were calculated from Lineweaver-Burk plots of the data.

phospho-Ser137-DARPP-32 [3] = test: as above; details: phospho-Ser137-DARPP-32 as substrate; Mn^2+ or Mg^2+

B1: PP2Ca: recombinant his-tagged alpha isoform of protein phosphatase 2C cloned from rat striatum (protein)
chain: MGAFLDKPKMEKHNAQGQGNGLRYGLSSMQGWRVEMEDAHTAVIGLPSGLETWSFFAVYDGHAGSQVAKYCCEHLLDHITNNQDFKGSAGAPSVENVKNGIRTGFLEIDEHMRVMSEKKHGADRSGSTAVGVLISPQHTYFINCGDSRGLLCRNRKVHFFTQDHKPSNPLEKERIQNAGGSVMIQRVNGSLAVSRALGDFDYKCVHGKGPTEQLVSPEPEVHDIERSEEDDQFIILACDGIWDVMGNEELCDFVRSRLEVTDDLEKVCNEVVDTCLYKGSRDNMSVILICFPNAPKVSAEAVKKEAELDKYLENRVEEIIKKQGEGVPDLVHVMRTLASENIPSLPPGGELASKRNVIEAVYNRLNPYKNDDTDSASTDDMW
modifications: left off: small tags and cut ends
notes: recombinant his-tagged alpha isoform of protein phosphatase 2C cloned from rat striatum
For B1, the “Vmax of pNPP hydrolysis, Mn^2+ compared to Mg^2+ (higher)” value ([1]; 20 mM Mn^2+ versus 20 mM Mg^2+) was “approximately 50 fold”, the Vmax ([1]; in the presence of 20 mM Mg^2+) was 0.20 µmol/mg/min and the kcat ([1]; in the presence of 20 mM Mg^2+) was 0.16 s⁻¹. For the same molecule, the Km ([1]; in the presence of 20 mM Mg^2+) was 3100 µM, the Vmax ([1]; in the presence of 20 mM Mn^2+) was 7.49 µmol/mg/min and the kcat ([1]; in the presence of 20 mM Mn^2+) was 5.83 s⁻¹. For the same molecule, the Km ([1]; in the presence of 20 mM Mn^2+) was 1530 µM, the Km (phospho-Ser137-DARPP-32 [2]) was 13.1 µM and the Vmax (phospho-Ser137-DARPP-32 [2]) was 0.39 µmol/mg/min. For the same molecule, the kcat (phospho-Ser137-DARPP-32 [2]) was 0.31 s⁻¹ and the “divalent cation concentration for maximal activity” value (phospho-Ser137-DARPP-32 [3]) was 4 to 5 mM.
